Reference: patent US20210069342A1 (LEGOCHEM BIOSCIENCES, published 2021)

Experiments:
[1] = target: T1, human ROR1 expressed on the cell surface (human, UniProt Q01973 30-937); experiment: flow cytometry on 697 cells (ALL), C2E3 IgG, FITC anti-human Fc detection
T1 construct: whole, on cells; also called cell surface-expressed ROR1 antigen; ROR1 on JeKo-1, Mino, CHO-human ROR1, MC38-human ROR1 and other cancer cell lines
Protocol: (§1) FACS analysis (FACSCalibur, BD Biosciences) was used to analyze the binding of the anti-ROR1 antibody of the present invention to ROR1 in the above cell lines.
(§2) Specifically, the respective cell lines were dissociated and washed in PBS, then the numbers of cells were counted and adjusted to 2×10⁵ cells/200 PBS. Then, they were treated with 10 /mL of the antibody of clone name C2E3 of the ROR1 monoclonal antibodies prepared in Embodiment 3, and reacted for 1 hour at 4° C. After the reaction, the cells were washed in PBS, then FITC-marked constant region (Fc) specific antibody (Goat anti-human IgG FITC conjugate, Fc specific, Sigma, F9512, concentration 20 mg/ml) was suspended in 2 /1×10⁵ cells/200 PBS and reacted for 1 hour at 4° C. After reacting, the cells were washed with PBS and analyzed with the FACSCalibur equipment. The negative control was only treated with FITC-marked constant region (Fc) specific antibody. To compare the degree of ROR1 expression among the respective cancer cell lines, the quotient of dividing the shifted readings for the experimental group treated with the ROR1 monoclonal antibody (C2E3) of the present invention by the shifted readings for the control group (MFI Ratio: MFI of anti-ROR1/MFI or 2nd Ab) is indicated.

[2] = target: T1, human ROR1 expressed on the cell surface; experiment: flow cytometry on NCI-H1975 cells (lung cancer), C2E3 IgG, FITC anti-human Fc detection
Protocol: as §1, §2

T1 sequence (Q01973 30-937): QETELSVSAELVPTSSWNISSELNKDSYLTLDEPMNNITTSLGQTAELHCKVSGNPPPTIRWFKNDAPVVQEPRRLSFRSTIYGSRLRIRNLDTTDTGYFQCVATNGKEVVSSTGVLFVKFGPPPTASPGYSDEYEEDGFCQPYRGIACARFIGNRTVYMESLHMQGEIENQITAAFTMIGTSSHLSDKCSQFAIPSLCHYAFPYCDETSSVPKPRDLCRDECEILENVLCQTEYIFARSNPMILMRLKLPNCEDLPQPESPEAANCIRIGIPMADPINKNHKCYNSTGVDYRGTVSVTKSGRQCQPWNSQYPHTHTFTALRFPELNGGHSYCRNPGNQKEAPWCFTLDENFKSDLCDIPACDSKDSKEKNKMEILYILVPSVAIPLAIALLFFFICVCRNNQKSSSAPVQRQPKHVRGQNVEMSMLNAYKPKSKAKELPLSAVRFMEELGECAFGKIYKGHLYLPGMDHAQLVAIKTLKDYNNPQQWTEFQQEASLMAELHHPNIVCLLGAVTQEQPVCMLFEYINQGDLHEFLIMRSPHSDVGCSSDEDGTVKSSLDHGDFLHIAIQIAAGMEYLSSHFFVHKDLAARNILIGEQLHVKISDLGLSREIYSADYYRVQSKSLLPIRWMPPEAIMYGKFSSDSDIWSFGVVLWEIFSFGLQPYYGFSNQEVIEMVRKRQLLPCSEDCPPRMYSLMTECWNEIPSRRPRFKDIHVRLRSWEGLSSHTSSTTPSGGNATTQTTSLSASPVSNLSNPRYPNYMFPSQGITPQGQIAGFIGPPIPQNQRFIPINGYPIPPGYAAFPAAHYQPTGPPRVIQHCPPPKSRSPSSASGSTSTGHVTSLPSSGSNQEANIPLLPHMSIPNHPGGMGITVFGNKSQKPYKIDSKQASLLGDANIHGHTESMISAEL

B1: anti-ROR1 IgG antibody C2E3 (antibody, V domains shown)
VH: EVQLLESGGGLVQPGGSLRLSCAASGFTFSNYAMSWVRQAPGKGLEWVSSISHNSGSTYYADSVKGRFTISRDNSKNTLYLQMNSLRAEDTAVYYCAKFISARKSLGRSYSNGMDVWGQGTLVTVSS
VL: QSVLTQPPSASGTPGQRVTISCTGSSSNIGSNDVTWYQQLPGTAPKLLIYADSKRPSGVPDRFSGSKSGTSASLAISGLRSEDEADYYCGTWDYSLSGYVFGGGTKLTVLG
notes: Full IgG form (human IgG1 constant region, lambda light chain), expressed in CHO-S cells
B1 was tested, and the “Mean Fold Ratio (MFI of anti-ROR1 / MFI of 2nd Ab)” value [1] was 12 and the “Mean Fold Ratio (MFI of anti-ROR1 / MFI of 2nd Ab)” value [2] was 4.2.
